Laboratory results reported in patent publication US20210309722A1 (DUKE UNIVERSITY, published 2021).
Blank lines part the entries; values can stand above or below the binder they belong to.

Key:
GLP-1 receptor = experiment: cell-based or functional assay
[1] = biological target: FGF21 receptor complex (murine β-Klotho and FGF receptor 1) (murine, UniProt Q99N32 1-1043; P16092 22-822); experiment: cell-based or functional assay
FGF21 receptor complex (murine β-Klotho and FGF receptor 1), sequence (Q99N32 whole entry, chain 1 of 2): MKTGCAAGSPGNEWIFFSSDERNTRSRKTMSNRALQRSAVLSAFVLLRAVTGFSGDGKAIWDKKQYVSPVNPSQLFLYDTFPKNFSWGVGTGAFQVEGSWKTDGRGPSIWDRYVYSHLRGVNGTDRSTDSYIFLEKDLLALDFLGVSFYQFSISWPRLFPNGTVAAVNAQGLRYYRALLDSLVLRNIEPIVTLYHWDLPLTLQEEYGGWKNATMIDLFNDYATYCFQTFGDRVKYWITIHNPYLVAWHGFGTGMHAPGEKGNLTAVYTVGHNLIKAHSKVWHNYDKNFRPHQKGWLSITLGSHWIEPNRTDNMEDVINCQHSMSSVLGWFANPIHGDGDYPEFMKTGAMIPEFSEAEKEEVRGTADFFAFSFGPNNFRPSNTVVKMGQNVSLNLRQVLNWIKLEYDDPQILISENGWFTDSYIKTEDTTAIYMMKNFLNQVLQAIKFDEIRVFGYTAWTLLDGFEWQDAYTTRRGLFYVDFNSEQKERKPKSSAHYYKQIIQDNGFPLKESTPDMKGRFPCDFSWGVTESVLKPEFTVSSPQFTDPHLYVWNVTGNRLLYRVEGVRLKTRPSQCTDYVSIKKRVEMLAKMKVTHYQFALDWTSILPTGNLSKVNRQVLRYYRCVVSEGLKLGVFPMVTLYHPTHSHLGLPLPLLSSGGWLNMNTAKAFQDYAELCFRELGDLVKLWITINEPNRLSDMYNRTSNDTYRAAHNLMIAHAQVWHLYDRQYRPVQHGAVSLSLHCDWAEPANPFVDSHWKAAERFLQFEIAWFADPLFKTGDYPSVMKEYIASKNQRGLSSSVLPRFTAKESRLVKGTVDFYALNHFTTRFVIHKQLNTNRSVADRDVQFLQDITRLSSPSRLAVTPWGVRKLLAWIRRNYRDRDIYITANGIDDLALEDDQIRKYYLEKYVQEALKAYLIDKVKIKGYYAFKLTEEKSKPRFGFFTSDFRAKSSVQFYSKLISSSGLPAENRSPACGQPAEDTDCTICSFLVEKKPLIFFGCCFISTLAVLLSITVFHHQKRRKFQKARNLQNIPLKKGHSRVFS
FGF21 receptor complex (murine β-Klotho and FGF receptor 1), sequence (P16092 22-822, chain 2 of 2): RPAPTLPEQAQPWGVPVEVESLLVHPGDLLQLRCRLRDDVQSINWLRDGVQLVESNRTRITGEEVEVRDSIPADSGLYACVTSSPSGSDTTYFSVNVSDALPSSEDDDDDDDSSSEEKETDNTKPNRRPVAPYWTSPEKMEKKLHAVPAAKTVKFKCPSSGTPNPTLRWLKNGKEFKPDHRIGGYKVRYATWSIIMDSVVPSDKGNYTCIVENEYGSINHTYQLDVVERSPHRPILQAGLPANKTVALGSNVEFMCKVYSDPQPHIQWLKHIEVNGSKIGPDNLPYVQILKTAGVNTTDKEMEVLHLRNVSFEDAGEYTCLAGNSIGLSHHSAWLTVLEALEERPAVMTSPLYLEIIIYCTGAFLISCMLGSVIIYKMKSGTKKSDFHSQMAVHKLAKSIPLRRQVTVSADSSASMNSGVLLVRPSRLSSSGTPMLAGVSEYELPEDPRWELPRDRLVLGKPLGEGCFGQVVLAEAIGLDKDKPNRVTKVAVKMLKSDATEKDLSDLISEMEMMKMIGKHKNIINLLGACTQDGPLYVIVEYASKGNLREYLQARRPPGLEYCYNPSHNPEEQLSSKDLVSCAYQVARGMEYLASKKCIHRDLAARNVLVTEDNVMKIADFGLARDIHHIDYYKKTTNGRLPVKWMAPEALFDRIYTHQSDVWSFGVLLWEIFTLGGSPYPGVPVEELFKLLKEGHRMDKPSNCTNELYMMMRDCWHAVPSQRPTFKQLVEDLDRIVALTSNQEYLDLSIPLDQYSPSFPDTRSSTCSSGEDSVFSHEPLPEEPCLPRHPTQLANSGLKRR

EC50, cAMP production (cAMP-inducible luciferase reporter) in HEK293 cells expressing GLP1R (GLP-1 receptor): 0.212 nM
B1: GLP1-ELP-FGF21 (after removal of the expression-enhancing sequence) (other)
chain: MSKGPGENLYFQGAHGEGTFTSDVSSYLEEQAAKEFIAWLVKGAGVGVPGVGVPGAGVPGVGVPGVGVPGVGVPGVGVPGAGVPGVGVPGVGVPGVGVPGVGVPGAGVPGVGVPGVGVPGVGVPGVGVPGAGVPGVGVPGVGVPGVGVPGVGVPGAGVPGVGVPGVGVPGVGVPGVGVPGAGVPGVGVPGVGVPGVGVPGVGVPGAGVPGVGVPGVGVPGVGVPGVGVPGAGVPGVGVPGVGVPGVGVPGVGVPGAGVPGVGVPGVGVPGVGVPGVGVPGAGVPGVGVPGVGVPGVGVPGVGVPGAGVPGVGVPGVGVPGVGVPGVGVPGAGVPGVGVPGVGVPGVGVPGVGVPGAGVPGVGVPGVGVPGVGVPGVGVPGAGVPGVGVPGVGVPGVGVPGVGVPGAGVPGVGVPGVGVPGVGVPGVGVPGAGVPGVGVPGVGVPGVGVPGVGVPGAGVPGVGVPGVGVPGVGVPGVGVPGAGVPGVGVPGVGVPGVGVPGVGVPGAGVPGVGVPGVGVPGVGVPGVGVPGAGVPGVGVPGVGVPGVGVPGVGVPGAGVPGVGVPGVGVPGVGVPGVGVPGAGVPGVGVPGVGVPGVGVPGVGVPGAGVPGVGVPGVGVPGVGVPGVGVPGAGVPGVGVPGVGVPGAYPIPDSSPLLQFGGQVRQRYLYTDDDQDTEAHLEIREDGTVVGAAHRSPESLLELKALKPGVIQILGVKASRFLCQQPDGALYGSPHFDPEACSFRERLLEDGYNVYQSEAHGLPLRLPQKDSPNQDATSWGPVRFLPMPGLLHEPQDQAGFLPPEPPDVGSSDPLSMVEGSQGRSPSYASG

GLP-1R EC50, cAMP production (cAMP-inducible luciferase reporter) in HEK293 cells expressing GLP-1R (GLP-1 receptor): 0.0239 nM | fold increase of EC50 against native GLP1, cAMP production assay (GLP-1 receptor): ~10 fold
B2: GLP1-ELP20%Ala,120-FGF21 (no AA leader) (other)
chain: HGEGTFTSDVSSYLEEQAAKEFIAWLVKGAGVGVPGVGVPGAGVPGVGVPGVGVPGVGVPGVGVPGAGVPGVGVPGVGVPGVGVPGVGVPGAGVPGVGVPGVGVPGVGVPGVGVPGAGVPGVGVPGVGVPGVGVPGVGVPGAGVPGVGVPGVGVPGVGVPGVGVPGAGVPGVGVPGVGVPGVGVPGVGVPGAGVPGVGVPGVGVPGVGVPGVGVPGAGVPGVGVPGVGVPGVGVPGVGVPGAGVPGVGVPGVGVPGVGVPGVGVPGAGVPGVGVPGVGVPGVGVPGVGVPGAGVPGVGVPGVGVPGVGVPGVGVPGAGVPGVGVPGVGVPGVGVPGVGVPGAGVPGVGVPGVGVPGVGVPGVGVPGAGVPGVGVPGVGVPGVGVPGVGVPGAGVPGVGVPGVGVPGVGVPGVGVPGAGVPGVGVPGVGVPGVGVPGVGVPGAGVPGVGVPGVGVPGVGVPGVGVPGAGVPGVGVPGVGVPGVGVPGVGVPGAGVPGVGVPGVGVPGVGVPGVGVPGAGVPGVGVPGVGVPGVGVPGVGVPGAGVPGVGVPGVGVPGVGVPGVGVPGAGVPGVGVPGVGVPGVGVPGVGVPGAGVPGVGVPGVGVPGVGVPGVGVPGAGVPGVGVPGVGVPGAYPIPDSSPLLQFGGQVRQRYLYTDDDQDTEAHLEIREDGTVVGAAHRSPESLLELKALKPGVIQILGVKASRFLCQQPDGALYGSPHFDPEACSFRERLLEDGYNVYQSEAHGLPLRLPQKDSPNQDATSWGPVRFLPMPGLLHEPQDQAGFLPPEPPDVGSSDPLSMVEGSQGRSPSYASG

FGF21 receptor EC50, ERK1/2 phosphorylation (phospho-ERK1/2 normalized to total ERK1/2) in HEK293 cells expressing FGFR1 and β-Klotho [1]: 18.8 nM | fold increase of FGF21 receptor EC50 against native mouse FGF21, ERK1/2 phosphorylation assay [1]: ~20 fold
B3: ELP20%Ala,120-FGF21 (other)
chain: GVGVPGVGVPGAGVPGVGVPGVGVPGVGVPGVGVPGAGVPGVGVPGVGVPGVGVPGVGVPGAGVPGVGVPGVGVPGVGVPGVGVPGAGVPGVGVPGVGVPGVGVPGVGVPGAGVPGVGVPGVGVPGVGVPGVGVPGAGVPGVGVPGVGVPGVGVPGVGVPGAGVPGVGVPGVGVPGVGVPGVGVPGAGVPGVGVPGVGVPGVGVPGVGVPGAGVPGVGVPGVGVPGVGVPGVGVPGAGVPGVGVPGVGVPGVGVPGVGVPGAGVPGVGVPGVGVPGVGVPGVGVPGAGVPGVGVPGVGVPGVGVPGVGVPGAGVPGVGVPGVGVPGVGVPGVGVPGAGVPGVGVPGVGVPGVGVPGVGVPGAGVPGVGVPGVGVPGVGVPGVGVPGAGVPGVGVPGVGVPGVGVPGVGVPGAGVPGVGVPGVGVPGVGVPGVGVPGAGVPGVGVPGVGVPGVGVPGVGVPGAGVPGVGVPGVGVPGVGVPGVGVPGAGVPGVGVPGVGVPGVGVPGVGVPGAGVPGVGVPGVGVPGVGVPGVGVPGAGVPGVGVPGVGVPGVGVPGVGVPGAGVPGVGVPGVGVPGVGVPGVGVPGAGVPGVGVPGVGVPGAYPIPDSSPLLQFGGQVRQRYLYTDDDQDTEAHLEIREDGTVVGAAHRSPESLLELKALKPGVIQILGVKASRFLCQQPDGALYGSPHFDPEACSFRERLLEDGYNVYQSEAHGLPLRLPQKDSPNQDATSWGPVRFLPMPGLLHEPQDQAGFLPPEPPDVGSSDPLSMVEGSQGRSPSYASG

GLP-1R EC50, cAMP production (cAMP-inducible luciferase reporter) in HEK293 cells expressing GLP-1R (GLP-1 receptor): 0.0295 nM | fold increase of EC50 against native GLP1, cAMP production assay (GLP-1 receptor): ~10 fold | fold increase of EC50 against native GLP-1, cAMP production assay (GLP-1 receptor): 10 fold | fold increase of GLP-1R EC50 against native GLP-1, cAMP production assay (GLP-1 receptor): ~10 fold
B4: GLP1-ELP20%Ala,120 (other)
chain: HGEGTFTSDVSSYLEEQAAKEFIAWLVKGAGVGVPGVGVPGAGVPGVGVPGVGVPGVGVPGVGVPGAGVPGVGVPGVGVPGVGVPGVGVPGAGVPGVGVPGVGVPGVGVPGVGVPGAGVPGVGVPGVGVPGVGVPGVGVPGAGVPGVGVPGVGVPGVGVPGVGVPGAGVPGVGVPGVGVPGVGVPGVGVPGAGVPGVGVPGVGVPGVGVPGVGVPGAGVPGVGVPGVGVPGVGVPGVGVPGAGVPGVGVPGVGVPGVGVPGVGVPGAGVPGVGVPGVGVPGVGVPGVGVPGAGVPGVGVPGVGVPGVGVPGVGVPGAGVPGVGVPGVGVPGVGVPGVGVPGAGVPGVGVPGVGVPGVGVPGVGVPGAGVPGVGVPGVGVPGVGVPGVGVPGAGVPGVGVPGVGVPGVGVPGVGVPGAGVPGVGVPGVGVPGVGVPGVGVPGAGVPGVGVPGVGVPGVGVPGVGVPGAGVPGVGVPGVGVPGVGVPGVGVPGAGVPGVGVPGVGVPGVGVPGVGVPGAGVPGVGVPGVGVPGVGVPGVGVPGAGVPGVGVPGVGVPGVGVPGVGVPGAGVPGVGVPGVGVPGVGVPGVGVPGAGVPGVGVPGVGVPGVGVPGVGVPGAGVPGVGVPGVGVPG

FGF21 receptor EC50, ERK1/2 phosphorylation (phospho-ERK1/2 normalized to total ERK1/2) in HEK293 cells expressing FGFR1 and β-Klotho [1]: 43.2 nM
B5: GLP1-ELP20%Ala,120-FGF21 (other)
chain: AAHGEGTFTSDVSSYLEEQAAKEFIAWLVKGAGVGVPGVGVPGAGVPGVGVPGVGVPGVGVPGVGVPGAGVPGVGVPGVGVPGVGVPGVGVPGAGVPGVGVPGVGVPGVGVPGVGVPGAGVPGVGVPGVGVPGVGVPGVGVPGAGVPGVGVPGVGVPGVGVPGVGVPGAGVPGVGVPGVGVPGVGVPGVGVPGAGVPGVGVPGVGVPGVGVPGVGVPGAGVPGVGVPGVGVPGVGVPGVGVPGAGVPGVGVPGVGVPGVGVPGVGVPGAGVPGVGVPGVGVPGVGVPGVGVPGAGVPGVGVPGVGVPGVGVPGVGVPGAGVPGVGVPGVGVPGVGVPGVGVPGAGVPGVGVPGVGVPGVGVPGVGVPGAGVPGVGVPGVGVPGVGVPGVGVPGAGVPGVGVPGVGVPGVGVPGVGVPGAGVPGVGVPGVGVPGVGVPGVGVPGAGVPGVGVPGVGVPGVGVPGVGVPGAGVPGVGVPGVGVPGVGVPGVGVPGAGVPGVGVPGVGVPGVGVPGVGVPGAGVPGVGVPGVGVPGVGVPGVGVPGAGVPGVGVPGVGVPGVGVPGVGVPGAGVPGVGVPGVGVPGVGVPGVGVPGAGVPGVGVPGVGVPGVGVPGVGVPGAGVPGVGVPGVGVPGAYPIPDSSPLLQFGGQVRQRYLYTDDDQDTEAHLEIREDGTVVGAAHRSPESLLELKALKPGVIQILGVKASRFLCQQPDGALYGSPHFDPEACSFRERLLEDGYNVYQSEAHGLPLRLPQKDSPNQDATSWGPVRFLPMPGLLHEPQDQAGFLPPEPPDVGSSDPLSMVEGSQGRSPSYASG
